Experimental data as given in US20250215104A1 (published 2025).

Target: human suPAR (hsuPAR) recombinant protein (human, UniProt Q03405 23-303)
Test: BLI; avid

human suPAR (hsuPAR) recombinant protein, sequence (Q03405 23-303): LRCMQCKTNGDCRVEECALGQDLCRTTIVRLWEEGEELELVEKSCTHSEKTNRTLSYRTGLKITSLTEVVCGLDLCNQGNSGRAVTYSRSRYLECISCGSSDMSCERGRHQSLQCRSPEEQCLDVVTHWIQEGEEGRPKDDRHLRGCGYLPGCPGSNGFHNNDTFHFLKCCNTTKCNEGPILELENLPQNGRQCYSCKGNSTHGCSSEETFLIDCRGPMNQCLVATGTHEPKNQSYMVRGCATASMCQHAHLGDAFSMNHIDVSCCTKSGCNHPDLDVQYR

B1: WAb0014 (antibody, V domains shown)
VH: QVQLVQSGAEVKKPGASVKVSCKASGYTFTNYYMHWVRQAPGQGLEWMGWIDHESGSTIYAQKFQGRVTMTRDTSTSTVYMELSSLRSEDTAVYYCARGYDVDWFVYWGQGTLVTVSS
VL: DIQMTQSPSSLSASVGDRVTITCSARQSVSYMYWYQQKPGKAPKLLIYRTSNLASGVPSRFSGSGSGTDFTLTISSLQPEDFATYYCQQYHSYPPTFGGGTKVEIKR
In the case of B1, the Kd is reported as < 1 pM.
